Patent publication US20250059273A1 (UNM RAINFOREST INNOVATIONS, published 2025)
Ends that are not written are not given here.

B1: P2X4-scFv95 (parental murine anti-P2X4R scFv) (scFv)
scFv: MAEVKLVESGGGLVQPGGSLRLSCATSGFTFTDYYMSWVRQPPGKALEWLGFIRNKANGYTTEYSASVKGRFTISRDNSQSILYLQMNTLRAEDSATYYCARWEGDLLYAMDYWGQGTSVTVSSGGGGSGGGGSGGGGGSGGGGSDIQMTQTTSSLSASLGDRVTISCSASQGISNYLNWYQQKPDGTVKLLIYYTSSLHSGVPSRFSGSGSGTDYSLTISNLEPEDIATYYCQQYSKLPWTFGGGTKLEIKRADAAALEHHHHHH
notes: also called mscFv95; clone 95
B2: P2X4-scFv12 (scFv)
scFv: MADVKLQESGPGLVKPSQSLSLTCSVTGYSITSGYYWNWIRQFPGNKLEWMGYISYDGSNNYNPSLKNRISITRDTSKNQFFLKLNSVTTEDTATYYCARSDYDLYYYAMDYWGQGTSVTVSSAKTTPPSGGGGSGGGGSGGGGGSGGGGSDIVMTQSPATLSVTPGDRVSLSCRASQSISDYLHWYQQKSHESPRLLIKYASQSISGIPSRFSGSGSGSDFTLSINSVEPEDVGVYYCQNGHSFPLTFGSGTKLEIKRADAAALEHHHHHH
B3: humanized P2X4R scFv HC1-LC1 (scFv)
scFv: MAEVKLVESGGGLVQPGGSLRLSCATSGFTFTDYYMSWVRQPPGKALEWLGFIRNKANGYTTEYSASVKGRFTISRDNSQSILYLQMNTLRAEDSATYYCARWEGDLLYAMDYWGQGTSVTVSSGGGGSGGGGSGGGGSDIQMTQTTSSLSASLGDRVTISCSASQGISNYLNWYQQKPDGTVKLLIYYTSSLHSGVPSRFSGSGSGTDYSLTISNLEQEDIATYYCQQYSKLPWTFGGGTKLEIKRAAALEHHHHHH
notes: HC-(G4S)3-LC with C-terminal His tag, expressed in E. coli
B4: humanized P2X4R scFv HC3-LC1 (scFv)
scFv: MAEVQLVESGGGLVQPGGSLRLSCATSGFTFTDYYMHWVRQAPGKGLEWVGFIRNKANGYTTEYSASVKGRFTISRDNSKNTLYLQMNSLRAEDTAVYYCARWEGDLLYAMDYWGQGTLVTVSSGGGGSGGGGSGGGGSDIQMTQTTSSLSASLGDRVTISCSASQGISNYLNWYQQKPDGTVKLLIYYTSSLHSGVPSRFSGSGSGTDYSLTISNLEQEDIATYYCQQYSKLPWTFGGGTKLEIKRAAALEHHHHHH
notes: as for B3
B5: humanized P2X4R scFv HC2-LC1 (scFv)
scFv: MAQVQLQESGPGLVKPSQTLSLTCTTSGFTFTDYYMSWVRQAPGKGLEWIGFIRNKANGYTTEYSASVKGRFTISRDNSKNQFSLRLSSVTAADTAVYYCARWEGDLLYAMDYWGQGTTVTVSSGGGGSGGGGSGGGGSDIQMTQTTSSLSASLGDRVTISCSASQGISNYLNWYQQKPDGTVKLLIYYTSSLHSGVPSRFSGSGSGTDYSLTISNLEQEDIATYYCQQYSKLPWTFGGGTKLEIKRAAALEHHHHHH
notes: as for B3
B6: humanized P2X4R scFv HC2-LC3 (scFv)
scFv: MAQVQLQESGPGLVKPSQTLSLTCTTSGFTFTDYYMSWVRQAPGKGLEWIGFIRNKANGYTTEYSASVKGRFTISRDNSKNQFSLRLSSVTAADTAVYYCARWEGDLLYAMDYWGQGTTVTVSSGGGGSGGGGSGGGGSDIQMTQSPSSLSASVGDRVTITCRASQGISNYLNWYQQKPGKAPKLLIYYTSSLHSGVPSRFSGSGSGTDFTLTISSLQPEDFAYYYCQQYSKLPWTFGGGTKVEIKRAAALEHHHHHH
notes: HC-(G4S)3-LC with C-terminal His tag
B7: humanized hP2X4R scFv HC3-LC3 (scFv)
scFv: MAEVQLVESGGGLVQPGGSLRLSCATSGFTFTDYYMHWVRQAPGKGLEWVGFIRNKANGYTTEYSASVKGRFTISRDNSKNTLYLQMNSLRAEDTAVYYCARWEGDLLYAMDYWGQGTLVTVSSGGGGSGGGGSGGGGSDIQMTQSPSSLSASVGDRVTITCRASQGISNYLNWYQQKPGKAPKLLIYYTSSLHSGVPSRFSGSGSGTDFTLTISSLQPEDFAYYYCQQYSKLPWTFGGGTKVEIKRAAALEHHHHHH
notes: HC-(G4S)3-LC with C-terminal His tag; also called hP2X4R HC3-LC3 scFv; HC3 LC3 hP2X4R scFv
B8: P2X4-scFv103 (scFv)
scFv: MAQVQLKESGAELVRSGASVKLSCTASGFNIKNTYMHWVKQRPEQGLEWIGRIDPASGNTKYAPKFQGKATITADTSSNTAYLQLSSLTSEDTAIYYCARFYDGYYWGQGTTLTVSSAKTTAPSGGGGSGGGGSGGGGSGGGGSAIMSASPGEKVTMTCSASSSVSYMHWYQQKSGTSPKRWIYDTSKLASGVPARFSGSGSGTSYSLTISRMEAEDAATYYCQQYSGYGTFGGGTKLEIKRADAAALEHHHHHH

What was measured:
[1] = target: T1, rat P2X4R extracellular peptide (a.a. 301-313, C-RDLAGKEQRTLTK) (rat, not fully specified (N-terminus)); assay: indirect ELISA titration on P2X4R peptide; legend box headed 'APPARENT Kd (nM)'
T1 construct: also called P2X4R peptide; rat P2X4 peptide
T1 peptide: RDLAGKEQRTLTK

[2] = target: human and mouse peptide targets; assay: not stated (estimated affinity)
[3] = target: T2, human P2X4 peptide (human, UniProt Q99571 301-313); assay: indirect ELISA, wells coated with human P2X4 peptide, anti-His detection
T2 construct: range 301-313; The range 301-313 is stated for rat P2X4R, with the human peptide as its 'human form'; also called human Target P2X4R peptide; thirteen amino acid extracellular peptide fragment of human P2X4 receptor
T2 peptide (looked up): RDLAGNEQRTLIK

[4] = target: T3, Hu CCK-B receptor protein (human, UniProt P32239 1-447, limits assumed); assay: indirect ELISA on human CCK-B receptor protein, concentration not shown
T3 construct: also called human CCK-B receptor
T3 sequence (looked up): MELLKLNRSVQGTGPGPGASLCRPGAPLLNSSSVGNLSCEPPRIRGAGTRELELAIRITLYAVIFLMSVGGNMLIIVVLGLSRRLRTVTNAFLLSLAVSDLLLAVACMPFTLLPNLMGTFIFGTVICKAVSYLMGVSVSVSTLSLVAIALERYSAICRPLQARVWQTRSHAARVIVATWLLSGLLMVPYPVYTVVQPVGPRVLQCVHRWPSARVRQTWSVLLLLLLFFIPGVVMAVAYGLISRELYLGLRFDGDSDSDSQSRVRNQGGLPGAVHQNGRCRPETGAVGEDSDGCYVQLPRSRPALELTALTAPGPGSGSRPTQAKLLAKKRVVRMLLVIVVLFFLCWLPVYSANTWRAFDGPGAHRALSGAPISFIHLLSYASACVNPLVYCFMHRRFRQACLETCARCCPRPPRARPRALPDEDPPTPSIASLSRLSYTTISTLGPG

[5] = target: T1, rat P2X4R extracellular peptide (a.a. …); assay: indirect ELISA of purified scFv on rat P2X4 peptide, concentration not shown
[6] = target: T2, human P2X4 peptide; assay: indirect ELISA on human P2X4 peptide

| Binder | Kd [1] | Kd [2] | Kd [3] | binding result [4] | binding result [5] | fold affinity improvement over parental mscFv95 [6] | fold affinity enhancement over parental mscFv95 [6] |
| --- | --- | --- | --- | --- | --- | --- | --- |
| B1 | 130 nM | 130 to 190 nM | 130 nM | no binding | – | – | – |
| B2 | 177 nM | – | – | – | – | – | – |
| B3 | – | – | 24 nM | no binding | binds | – | – |
| B4 | – | – | 4.7 nM | no binding | binds | > 10 fold | – |
| B5 | – | – | 12 nM | no binding | binds | > 10 fold | – |
| B6 | – | – | 29 nM | no binding | binds | – | – |
| B7 | – | – | 2.3 nM | no binding | binds | > 10 fold | > 50 fold |
| B8 | 978 nM | – | – | – | – | – | – |
